Results on five sequences are retold here after the supplement of paper PMC5998384.

The subject of data set [1] is HeLa Kyoto. As to the kind of experiment: solubility in G1/S (NP-40 vs SDS abundance) (log2 ratio); higher = more soluble. To be noted: cell cycle stage: G1/S.
In data set [2] the test system is HeLa Kyoto. In words: thermal stability score vs G1/S (z-score of summed log2 fold changes over temperatures); higher = more thermally stable than in G1/S.
In data set [3] the test system is HeLa Kyoto. As to the kind of experiment: melting temperature (median over replicates), in situ; higher = more thermally stable.
Data set [4] relates to HeLa Kyoto. As to the kind of experiment: solubility change mitosis vs G1/S (difference of NP-40 vs SDS log2 ratios) (log2 ratio difference); higher = more soluble in mitosis.
The mark [5] stands for this setting: cell cycle stage: early G1 (4.5 h after nocodazole release).
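Wherever melting temperature (median over replicates), in situ is given: HeLa Kyoto cells synchronized by double thymidine or nocodazole block, proteins quantified by TMT10plex mass spectrometry, three independent biological replicates.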
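Wherever solubility change mitosis vs G1/S (difference of NP-40 vs SDS log2 ratios) is given: synchronized HeLa Kyoto cells (double thymidine block for G1/S, nocodazole release for mitosis), protein amounts in NP-40 versus SDS lysates quantified by mass spectrometry, three biological replicates.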
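Wherever solubility in G1/S (NP-40 vs SDS abundance) is given: HeLa Kyoto cells arrested at G1/S by double thymidine block, proteins quantified by TMT10plex mass spectrometry in mild NP-40 versus SDS extracts, three biological replicates.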
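Wherever thermal stability score vs G1/S (z-score of summed log2 fold changes over temperatures) is given: synchronized HeLa Kyoto cells, proteins quantified by TMT10plex mass spectrometry, three biological replicates, mitosis taken 0.5 h after nocodazole release, G1/S directly after double thymidine block.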

As for “MPVRGDRGFPPRRELSGWLRAPGMEELIWEQYTVTLQKDSKRGFGIAVSGGRDNPHFENGETSIVISDVLPGGPADGLLQENDRVVMVNGTPMEDVLHSFAVQQLRKSGKVAAIVVKRPRKVQVAALQASPPLDQDDRAFEVMDEFDGRSFRSGYSERSRLNSHGGRSRSWEDSPERGRPHERARSRERDLSRDRSRGRSLERGLDQDHARTRDRSRGRSLERGLDHDFGPSRDRDRDRSRGRSIDQDYERAYHRAYDPDYERAYSPEYRRGARHDARSRGPRSRSREHPHSRSPSPEPRGRPGPIGVLLMKSRANEEYGLRLGSQIFVKEMTRTGLATKDGNLHEGDIILKINGTVTENMSLTDARKLIEKSRGKLQLVVLRDSQQTLINIPSLNDSDSEIEDISEIESNRSFSPEERRHQYSDYDYHSSSEKLKERPSSREDTPSRLSRMGATPTPFKSTGDIAGTVVPETNKEPRYQEDPPAPQPKAAPRTFLRPSPEDEAIYGPNTKMVRFKKGDSVGLRLAGGNDVGIFVAGIQEGTSAEQEGLQEGDQILKVNTQDFRGLVREDAVLYLLEIPKGEMVTILAQSRADVYRDILACGRGDSFFIRSHFECEKETPQSLAFTRGEVFRVVDTLYDGKLGNWLAVRIGNELEKGLIPNKSRAEQMASVQNAQRDNAGDRADFWRMRGQRSGVKKNLRKSREDLTAVVSVSTKFPAYERVLLREAGFKRPVVLFGPIADIAMEKLANELPDWFQTAKTEPKDAGSEKSTGVVRLNTVRQIIEQDKHALLDVTPKAVDLLNYTQWFPIVIFFNPDSRQGVKTMRQRLNPTSNKSSRKLFDQANKLKKTCAHLFTATINLNSANDSWFGSLKDTIQHQQGEAVWVSEGKMEGMDDDPEDRMSYLTAMGADYLSCDSRLISDFEDTDGEGGAYTDNELDEPAEEPLVSSITRSSEPVQHEESIRKPSPEPRAQMRRAASSDQLRDNSPPPAFKPEPPKAKTQNKEESYDFSKSYEYKSNPSAVAGNETPGASTKGYPPPVAAKPTFGRSILKPSTPIPPQEGEEVGESSEEQDNAPKSVLGKVKIFEKMDHKARLQRMQELQEAQNARIEIAQKHPDIYAVPIKTHKPDPGTPQHTSSRPPEPQKAPSRPYQDTRGSYGSDAEEEEYRQQLSEHSKRGYYGQSARYRDTEL [TJP2]”, the “solubility in G1/S (log2)” value with HeLa Kyoto [1] is -0.246. Also, the thermal stability score with HeLa Kyoto [2] (setting [5]) worked out at 1; with HeLa Kyoto [2] (cell cycle stage: mitosis), 2.91. For the same sequence, the figures for the melting temperature in the data set on HeLa Kyoto [3] (cell cycle stage: G1/S) and in the data set with HeLa Kyoto [3] (cell cycle stage: mitosis) were 48.1 °C and 49.2 °C, respectively. Further, the “solubility change mitosis (log2)” value in the data set with HeLa Kyoto [4] was 0.000921.
Regarding “MPYVDRQNRICGFLDIEENENSGKFLRRYFILDTREDSFVWYMDNPQNLPSGSSRVGAIKLTYISKVSDATKLRPKAEFCFVMNAGMRKYFLQANDQQDLVEWVNVLNKAIKITVPKQSDSQPNSDNLSRHGECGKKQVSYRTDIVGGVPIITPTQKEEVNECGESIDRNNLKRSQSHLPYFTPKPPQDSAVIKAGYCVKQGAVMKNWKRRYFQLDENTIGYFKSELEKEPLRVIPLKEVHKVQECKQSDIMMRDNLFEIVTTSRTFYVQADSPEEMHSWIKAVSGAIVAQRGPGRSASSEHPPGPSESKHAFRPTNAATATSHSTASRSNSLVSTFTMEKRGFYESLAKVKPGNFKVQTVSPREPASKVTEQALLRPQSKNGPQEKDCDLVDLDDASLPVSDV [PLEKHA1]”, the “solubility in G1/S (log2)” value in the data set on HeLa Kyoto [1] stood at 0.0285. The thermal stability score in the data set on HeLa Kyoto [2] (setting [5]) turned out to be 0.0968; with HeLa Kyoto [2] (cell cycle stage: mitosis), 0.182. In addition, the melting temperature in the data set with HeLa Kyoto [3] (cell cycle stage: G1/S) worked out at 49.8 °C; with HeLa Kyoto [3] (cell cycle stage: mitosis) it was 49 °C. For the same sequence, the “solubility change mitosis (log2)” value in the data set with HeLa Kyoto [4] was -0.0272.
For the sequence “MQDPNADTEWNDILRKKGILPPKESLKELEEEAEEEQRILQQSVVKTYEDMTLEELEDHEDEFNEEDERAIEMYRRRRLAEWKATKLKNKFGEVLEISGKDYVQEVTKAGEGLWVILHLYKQGIPLCALINQHLSGLARKFPDVKFIKAISTTCIPNYPDRNLPTIFVYLEGDIKAQFIGPLVFGGMNLTRDELEWKLSESGAIMTDLEENPKKPIEDVLLSSVRRSVLMKRDSDSEGD [PDCL3]”, the “solubility in G1/S (log2)” value in the data set with HeLa Kyoto [1] was determined as 0.617. Also, the results for the thermal stability score with HeLa Kyoto [2] (setting [5]) and with HeLa Kyoto [2] (cell cycle stage: mitosis) were -0.23 and -0.106, respectively. The melting temperature in the data set on HeLa Kyoto [3] (cell cycle stage: G1/S) and in the data set on HeLa Kyoto [3] (cell cycle stage: mitosis) was 54.2 °C throughout. For the same sequence, the “solubility change mitosis (log2)” value with HeLa Kyoto [4] is -0.135.
On to “MQDTGSVVPLHWFGFGYAALVASGGIIGYVKAGSVPSLAAGLLFGSLAGLGAYQLSQDPRNVWVFLATSGTLAGIMGMRFYHSGKFMPAGLIAGASLLMVAKVGVSMFNRPH [TMEM14C]”, for which the “solubility in G1/S (log2)” value in the data set with HeLa Kyoto [1] amounted to 0.356. Besides, the thermal stability score was -3.8e-18 in the data set with HeLa Kyoto [2] (setting [5]) and -4.49e-20 in the data set with HeLa Kyoto [2] (cell cycle stage: mitosis). In the data set with HeLa Kyoto [3] (cell cycle stage: mitosis), this sequence had a melting temperature of 54.3 °C. In addition, the “solubility change mitosis (log2)” value in the data set on HeLa Kyoto [4] was 0.206.
Turning to “MQGARAPRDQGRSPGRMSALGRSSVILLTYVLAATELTCLFMQFSIVPYLSRKLGLDSIAFGYLQTTFGVLQLLGGPVFGRFADQRGARAALTLSFLAALALYLLLAAASSPALPGVYLLFASRLPGALMHTLPAAQMVITDLSAPEERPAALGRLGLCFGVGVILGSLLGGTLVSAYGIQCPAILAALATLLGAVLSFTCIPASTKGAKTDAQAPLPGGPRASVFDLKAIASLLRLPDVPRIFLVKVASNCPTGLFMVMFSIISMDFFQLEAAQAGYLMSFFGLLQMVTQGLVIGQLSSHFSEEVLLRASVLVFIVVGLAMAWMSSVFHFCLLVPGLVFSLCTLNVVTDSMLIKAVSTSDTGTMLGLCASVQPLLRTLGPTVGGLLYRSFGVPVFGHVQVAINTLVLLVLWRKPMPQRKDKVR [SLC22A18]”, in the data set with HeLa Kyoto [1], the “solubility in G1/S (log2)” value was -0.019. Moreover, the thermal stability score is 0.106 in the data set on HeLa Kyoto [2] (setting [5]) and -0.446 in the data set with HeLa Kyoto [2] (cell cycle stage: mitosis). In the data set with HeLa Kyoto [3] (cell cycle stage: G1/S), this sequence showed a melting temperature of 54.2 °C. For the same sequence, the “solubility change mitosis (log2)” value in the data set with HeLa Kyoto [4] was -0.181.
